This note sets out measurements from paper PMC4114240.

Values joined by “and” are separate entries in the source; they are usually repeats but may differ in a detail not shown here. Equal values may be shown once.

The assay deals with Xanthomonas campestris pv. campestris RpfB with an N-terminal hexahistidine tag (Xanthomonas campestris pv. campestris 8004). As to the kind of experiment: SEC. For orientation: Size exclusion chromatography separates by hydrodynamic size, large species first.

“Xanthomonas campestris pv. campestris RpfB with an N-terminal hexahistidine tag (enzyme)”: the stoichiometry N was 3 and 6.

Usually stoichiometry N stands for the number of molecules, sites or subunits per partner or assembly.
